Reference: the nanobody polyreactivity screen of Harvey et al. (2022)

assay: yeast display, Sf9 membrane polyspecificity reagent, FACS + sequencing; frameworks hold sequencing errors
Method in brief: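 Polyreactivity labels are assigned by the sorting gate from which each nanobody was recovered. The gates were low and high (top ~1%), set on anti-HA fluorescence for expression and streptavidin fluorescence for reagent binding. Before sorting, galactose-induced (36–48 hours) yeast display cells were stained for 1 hour at 4 °C with 10% biotinylated, detergent-solubilized Sf9 membrane reagent.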

Sequence	polyreactivity (PSR sort gate)
QVQLVESGGGLVQAGGSLRLSCAASGGIFNRNAMGWYRQAPGKERELVAAISSGGGSTYYADSVKGRFTISRDNAKNTVYLQMNSLKPEDTAVYYCARDSYHLYIQPFGYWGQGTQVTVSS	low polyreactivity
QVQLVESGGGLVQAGGSLRLSCAASGGIFPAYAMGWYRQAPGKERELVASISSSGGSTYYADSVKGRFTISRDNAKNTVYLQMNSLKPEDTAVYYCNVAQYLRARRPVDYWGQGTQVTVSS	high polyreactivity
QVQLVESGGGLVQAGGSLRLSCAASGGIFPGNAMGWYRPAPGKERELVATISYSGGSTYYADSVKGRFTISRDNAKNTVYLQMNSLKPEDTAVYYCAARGYKPTRSRRTEYGYWGQGTQVTVSS	high polyreactivity
QVQLVESGGGLVQAGGSLRLSCAASGGIFPLNAMGWYRQAPGKERELVAAISRRGGSTYYADSVKGRFTISRDNAKNTVYLQMNSLKPEDTAVYYCAAVTVRKFYKGINYWYEYWGQGTQVTVSS	high polyreactivity
QVQLVESGGGLVQAGGSLRLSCAASGGIFPYYAMGWYRQAPGKERELVAGISQNDGRTYYADSVKGRFTISRDNAKNTVYLQMNSLKPEDTAVYYCATDYWYPRYGYWGQGTQVTVSS	low polyreactivity
QVQLVESGGGLVQAGGSLRLSCAASGGIFRGYAMGWYRQAPGKERELVAAITKRGGRTYYADSVKGRFTISRDNAKNTVYLQMNSLNPEDTAVFYCAADYYAAYHLPDLDYDYWGQGTQVTVSS	high polyreactivity
QVQLVESGGGLVQAGGSLRLSCAASGGIFRGYVMGWYRQAPGKERELVAAISYSGGNTYYADSVKGRFTISRDNAKNTVYLQMNSLKPEDTAVYYCDTVRSDFHSDDYWGQGTQVTVSS	low polyreactivity
QVQLVESGGGLVQAGGSLRLSCAASGGIFRLYGMGWYRQAPGKERELVAAIRQSGGRTYYADSVKGRFTISRDNAKNTDYLQMNSLKPEDTAVYYCAADLLYRSSGTVRSDYSRYDYWGQGTQVTVSS	low polyreactivity
QVQLVESGGGLVQAGGSLRLSCAASGGIFRLYGMGWYRQAPGKERELVAAIRQSGGRTYYADSVKGRFTISRDNAKNTVYLQMNSLKPEDTAVYYCAADLLYRSSGTVRSDYSRYDYWGQGTQVTVSS	low polyreactivity
QVQLVESGGGLVQAGGSLRLSCAASGGIFRNYAMGWYRQAPGKERELVARISSAGSTNYADSVKGRFTISRDNAKNTVYLQMNSLKPEDTAVYSCAAYPYVGYVSFSAYDYWGQGTQVTVSS	low polyreactivity
QVQLVESGGGLVQAGGSLRLSCAASGGIFRSYTMGWYRQAPGKERELVAAISRSGGRTYYADSVKGRFTISRDNAKNTVYLQMNSLKPEDTAVYYCAAYVRSATLRVNYGYWGQGTQVTVSS	high polyreactivity
QVQLVESGGGLVQAGGSLRLSCAASGGIFRWYTMGWYRPAPGKERELVAAITGSGGRTFYADSVKGRFTISRDNAKNTVYLQMNSLKPEDTAVYYCAKPQAQVGGYWGYDYWGQGTQVTVSS	high polyreactivity
QVQLVESGGGLVQAGGSLRLSCAASGGIFRYYAMGWYRQAPGKERELVAAISKRGGSTYYADSVKGRFTISRDNAKNTVYLQMNSLKPEDTAVYYCAAEGYYGSSYGYWGQGTQVTVSS	high polyreactivity
QVQLVESGGGLVQAGGSLRLSCAASGGIFRYYAMGWYRQAPGKERELVAAISKSGGRTYYADSVKGRFTISRDNAKNTVYLQMNSLKPEDTAVYYCAADLYPFSRNTRYQFLYNYWGQGTQVTVSS	low polyreactivity
QVQLVESGGGLVQAGGSLRLSCAASGGIFRYYAMGWYRQAPGKERELVAAISSGGRTYYADSVKGRFTISRDNAKNTVYLQMNSLKPEDTAVYYCNADRYWGYDYWGQGTQVTVSS	high polyreactivity
QVQLVESGGGLVQAGGSLRLSCAASGGIFSAYAMGWSRQAPGKERELVAVINGSGSNTYYADSVKGRFTISRDNAKNTVYLQMNSLKPEDTAVYYCAARVYVSRSKRLNYWGQGTQVTVSS	high polyreactivity
QVQLVESGGGLVQAGGSLRLSCAASGGIFSAYVMGWSRQAPGKERELVAAITRRGGSTYYADSVKGRFTISRDNAKNTVYLQMNSLKPEDTAVYYCAALLRGQDRTMDYWGQGTQVTVSS	high polyreactivity
QVQLVESGGGLVQAGGSLRLSCAASGGIFSRYAMGWYRQAPGKEREFVAAISFSGASTYYADSVKGRFTISRDNAKNTVYLQMNSLKPEDTAVYYCAAYWDAEGRRYTRLDYWGQGTQVTVSS	low polyreactivity
QVQLVESGGGLVQAGGSLRLSCAASGGIFSSYAMGWYRPAPGKERELVAAIDSDGTTYYADSVKGRFTISRDNAKNTVYLQMNSLKPEDTAVYYCATGYPVRYRGYLNWSYYAYDYWGQGTQVTVSS	low polyreactivity
QVQLVESGGGLVQAGGSLRLSCAASGGIFSYNVMGWYRQAPGKERELVAAITRGGSTYYADSVKGRFTISRDNAKNTVYLQMNSLKPEDTAVYYCAAVRNYLWTGYDYWGQGTQVTVSS	high polyreactivity
QVQLVESGGGLVQAGGSLRLSCAASGGIFSYYAMGWYRQAPGKERELVAAITGSGATTYYADSVKGRFTISRDNAKNTVYLQMNSLKPEDTAVYYCAADYWTAFYTLDSWGQGTQVTVSS	low polyreactivity

Sequence	polyreactivity (PSR sort gate)
QVQLVESGGGLVQAGGSLRLSCAASGGIFSYYVMGWYRQAPGKEREFVASITQRGRTYYADSVKGRFTISRDNAKNTVYLQINSLKPEDTAVYYCAAGIYAFRRHREEYDYWGQGTQVTVSS	high polyreactivity
QVQLVESGGGLVQAGGSLRLSCAASGGIFTSNAMGWYRQAPGKERELVAAITKNGGRTYYADSVKGRFTISRDNAKNTVYLQMNSLKPEDTAVYYCNAAVTFRCYDYWGQGTQVTVSS	high polyreactivity
QVQLVESGGGLVQAGGSLRLSCAASGGIFVPNAMGWSRQAPGKARELVAAISYSGGRTYYADSVKGRFTISRDNAKNTVYLQMTSLKPEDTAVYYCAAEYWFVYHHYNYWGQGTQVTVSS	high polyreactivity
QVQLVESGGGLVQAGGSLRLSCAASGGIFVVYGMGWYRQAPGKERELVAAISWRGGSTYYADSVKGRFTISRDNAKNTVYLQMNSLKPEDTAVSYCAADQYYGGYDYWGQGTQVTVSS	low polyreactivity
QVQLVESGGGLVQAGGSLRLSCAASGGIFWRYAMGWYRQAPGKERELVAAISSRGGSTYYADSVKGRFTISRDNAKNTVYLQMNSLKPEDTAVYYCAAAFLSRVQGYDSWGQGTQVTVSS	high polyreactivity
QVQLVESGGGLVQAGGSLRLSCAASGGIFYHYTMGWYRQAPGKERELVASIRGSGGRTYYADSVKGRFTLSRDNAKNTVDLQMNSLKPEDTAVYYCNARGSWYQPTYDYWGQGTQVTVST	high polyreactivity
QVQLVESGGGLVQAGGSLRLSCAASGGIFYLNAMGWYRQAPRKERELVAAITGTGGNTYYADSVKGRFTISRDNAKNTVYLQMNSLKPEDTAVYYCAAAAIGVGSGPFGIGWEEYYYWGLGTQVTVSS	low polyreactivity
QVQLVESGGGLVQAGGSLRLSCAASGGIFYRNAMGWYRQAPGKERELVAAITQSGGRTYYADSVKGRFTISRDNAKNTVYLQMNSLKPEDTAVYYCAARSRKLYGHYRGAYDYWGQGTQVTVSS	high polyreactivity
QVQLVESGGGLVQAGGSLRLSCAASGGIFYVNAMGWYRQAPGKERELVAAITSDGVSTYYADSVKGRFTISRDNAKNTVYLQMNSLKPEDTAVYYCAADNGGAGYYYGYVWYDYWGQGTQVTVSS	low polyreactivity
QVQLVESGGGLVQAGGSLRLSCAASGGIGSYAMGWYRQAPGKERELVAVITAGGDSTYYADSVKGRFTISRDNAKNTVYLQMNSLKPEDTAVYYCNTVYRSKRYQYDYWGQGTQVTVSS	high polyreactivity
QVQLVESGGGLVQAGGSLRLSCAASGGIIDWYVMGWYSQARGKERELVAAISYNGGSTYYADSVKGRFTISRDNAKNTGYLQMNSLKPEDTAVYYCAAAVTWPYRYVWYDYWGQGTQVTVSS	low polyreactivity
QVQLVESGGGLVQAGGSLRLSCAASGGIIRTYARGWYRQAPGNETELVAAITTNAGSTYYADSVKGRFTISRDNAKNTVYLQMNSLKPEDTAVYYCAARWYYPYRTRYSASYGYWVQGTQVTVSS	high polyreactivity
QVQLVESGGGLVQAGGSLRLSCAASGGIIWAYAMGWYRQAPGKERELVAAISSSTGTTYYADSVKGRFTISRDNAKNTVYLQMNSLKPEDTAVYYCAAYAYIGDYVSYYGGDYWGQGTQVTVSS	low polyreactivity
QVQLVESGGGLVQAGGSLRLSCAASGGILDTYAMGWYRQAPGKERELVAAITSGGNTNYADSVKGRFTISRDNAKNTVYLQMNSLKPEDTAVYYCNVVTWYYVFRPWEYDYWGQGSQVTVSS	low polyreactivity
QVQLVESGGGLVQAGGSLRLSCAASGGILHGYAMGWYIQEPGKERELVSGITYSGDDTNYADSVKGRFTISRDNAKNTVYLQMNSLKPEDTAVYYCAAGPVWHIFTIDYVSFDDWGQGTQVTVSS	low polyreactivity
QVQLVESGGGLVQAGGSLRLSCAASGGILNRYAMGWYRQAPGKERELVAAIRWSGGSTYYADSVKGRFTISRDNAKNTVYLQMNSLKPEDTAVYYCAADVYYYHVLDFDYWGQGTLVTVSS	low polyreactivity
QVQLVESGGGLVQAGGSLRLSCAASGGILRQNTMGWYRQAPGKETELVAAISSSGGRTYYADSVKGRFTISRDNAKNTVYLQMNSLKPEDTAVYYCARGYSWSVGYPRVHDMDYWGQGTQVTVSS	high polyreactivity
QVQLVESGGGLVQAGGSLRLSCAASGGILWFYAMGWYIQAPGKEREFVAAIDLGGGSTYYADSVKGRFTISRDNAKTTVYLQMNSLKPEDTAVYYCNAETSGHYSTIMDYWGQGTQVTVSS	low polyreactivity
QVQLVESGGGLVQAGGSLRLSCAASGGLFKVYGMRLYRQAPGQERELVAAISWTTGGTYYADSVKGRFTISRDNAKNTVYLQMNSLKPEDTAVYYCNAPTWYYSGVRYDYWGQGTQVTVSS	high polyreactivity
QVQLVESGGGLVQAGGSLRLSCAASGGNFLAYAMGWYRQAPGKERELVAAITRRGTRTYYADSVKGRFTISRDNAKNTVYLQMNSLKPEDTAVYYCAADYYPASAGFDYWGQGTQVTVSS	high polyreactivity
QVQLVESGGGLVQAGGSLRLSCAASGGNFSPNAMGWYRQAPGKERELVAAISSNGGSTNYADSVKGRFTISRDNAKNTVYLKMNSLKPEDTAVYYCAGLQKRRSYWRPFYWGQGTQVTVSS	low polyreactivity
